Results on one molecule are retold here after paper PMC3765742 (2013).

In the experiment the target is M6P/IGF-IIR (Homo sapiens, UniProt P11717). Briefly: SPR. For orientation: In SPR one partner is held on a chip, and binding of the other changes the refractive index at the surface.
Chain of M6P/IGF-IIR (P11717 41-2491): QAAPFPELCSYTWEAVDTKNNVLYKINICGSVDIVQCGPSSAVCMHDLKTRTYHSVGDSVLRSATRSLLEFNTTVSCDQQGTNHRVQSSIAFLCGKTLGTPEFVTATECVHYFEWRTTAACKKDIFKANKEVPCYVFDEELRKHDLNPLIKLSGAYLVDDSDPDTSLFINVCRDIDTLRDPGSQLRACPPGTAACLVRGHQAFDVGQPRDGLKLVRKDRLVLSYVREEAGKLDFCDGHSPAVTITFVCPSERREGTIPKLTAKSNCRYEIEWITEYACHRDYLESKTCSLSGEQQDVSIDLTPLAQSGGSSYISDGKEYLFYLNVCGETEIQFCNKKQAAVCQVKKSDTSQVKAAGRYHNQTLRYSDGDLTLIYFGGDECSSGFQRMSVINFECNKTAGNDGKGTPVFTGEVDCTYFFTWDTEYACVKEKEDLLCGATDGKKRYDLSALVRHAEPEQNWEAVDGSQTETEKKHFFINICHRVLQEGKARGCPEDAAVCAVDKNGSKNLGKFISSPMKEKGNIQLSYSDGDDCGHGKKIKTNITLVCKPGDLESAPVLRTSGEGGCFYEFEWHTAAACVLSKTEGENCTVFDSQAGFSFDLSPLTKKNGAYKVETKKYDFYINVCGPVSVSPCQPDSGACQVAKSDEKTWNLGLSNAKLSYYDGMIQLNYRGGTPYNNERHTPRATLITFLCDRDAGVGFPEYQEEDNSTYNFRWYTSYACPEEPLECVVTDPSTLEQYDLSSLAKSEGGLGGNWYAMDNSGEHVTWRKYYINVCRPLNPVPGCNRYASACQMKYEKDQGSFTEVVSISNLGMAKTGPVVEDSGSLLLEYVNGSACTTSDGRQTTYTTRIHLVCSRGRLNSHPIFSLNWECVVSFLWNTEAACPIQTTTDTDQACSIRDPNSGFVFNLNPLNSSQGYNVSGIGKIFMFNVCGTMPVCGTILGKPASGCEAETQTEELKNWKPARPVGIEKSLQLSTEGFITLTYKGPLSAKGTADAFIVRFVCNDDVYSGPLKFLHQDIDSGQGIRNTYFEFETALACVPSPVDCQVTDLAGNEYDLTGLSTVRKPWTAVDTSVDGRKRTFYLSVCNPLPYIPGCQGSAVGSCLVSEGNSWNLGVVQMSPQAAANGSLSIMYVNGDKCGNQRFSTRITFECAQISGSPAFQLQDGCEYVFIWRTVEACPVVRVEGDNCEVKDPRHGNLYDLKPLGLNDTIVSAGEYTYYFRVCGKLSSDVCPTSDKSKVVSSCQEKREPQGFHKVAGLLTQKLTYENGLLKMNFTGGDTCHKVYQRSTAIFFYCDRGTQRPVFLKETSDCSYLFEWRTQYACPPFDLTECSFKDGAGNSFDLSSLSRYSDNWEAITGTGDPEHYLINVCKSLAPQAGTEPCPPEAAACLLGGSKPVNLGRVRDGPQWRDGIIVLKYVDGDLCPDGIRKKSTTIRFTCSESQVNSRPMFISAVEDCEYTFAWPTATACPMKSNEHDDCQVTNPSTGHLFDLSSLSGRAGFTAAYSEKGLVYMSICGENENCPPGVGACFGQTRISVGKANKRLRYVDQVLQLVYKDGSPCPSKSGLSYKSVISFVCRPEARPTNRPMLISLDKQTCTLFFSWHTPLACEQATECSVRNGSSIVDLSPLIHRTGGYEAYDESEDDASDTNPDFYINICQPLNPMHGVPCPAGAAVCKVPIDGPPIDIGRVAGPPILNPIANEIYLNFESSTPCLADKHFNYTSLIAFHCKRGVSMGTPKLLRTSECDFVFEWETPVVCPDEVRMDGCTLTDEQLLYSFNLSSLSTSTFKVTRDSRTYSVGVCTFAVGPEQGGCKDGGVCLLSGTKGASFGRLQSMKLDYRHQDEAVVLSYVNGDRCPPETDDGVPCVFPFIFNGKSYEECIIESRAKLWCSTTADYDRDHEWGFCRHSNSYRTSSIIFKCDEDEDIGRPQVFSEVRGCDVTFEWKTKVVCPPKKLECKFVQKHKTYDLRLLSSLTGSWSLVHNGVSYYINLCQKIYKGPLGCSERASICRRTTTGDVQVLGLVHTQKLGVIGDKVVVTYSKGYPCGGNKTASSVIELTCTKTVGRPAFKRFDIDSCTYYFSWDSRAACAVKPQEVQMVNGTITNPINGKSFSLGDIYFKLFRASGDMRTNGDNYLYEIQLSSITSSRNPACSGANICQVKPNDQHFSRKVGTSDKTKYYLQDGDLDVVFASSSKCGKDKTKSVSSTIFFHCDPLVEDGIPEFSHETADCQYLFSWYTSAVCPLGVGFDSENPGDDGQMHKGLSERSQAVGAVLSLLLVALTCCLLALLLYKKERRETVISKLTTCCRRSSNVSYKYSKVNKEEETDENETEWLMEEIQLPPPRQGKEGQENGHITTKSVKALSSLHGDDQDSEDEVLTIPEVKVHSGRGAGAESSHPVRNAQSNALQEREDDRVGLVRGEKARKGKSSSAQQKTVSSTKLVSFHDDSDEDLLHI

B1: DPP-4 (protein)
chain: SRKTYTLTDYLKNTYRLKLYSLRWISDHEYLYKQENNILVFNAEYGNSSVFLENSTFDEFGHSINDYSISPDGQFILLEYNYVKQWRHSYTASYDIYDLNKRQLITEERIPNNTQWVTWSPVGHKLAYVWNNDIYVKIEPNLPSYRITWTGKEDIIYNGITDWVYEEEVFSAYSALWWSPNGTFLAYAQFNDTEVPLIEYSFYSDESLQYPKTVRVPYPKAGAVNPTVKFFVVNTDSLSSVTNATSIQITAPASMLIGDHYLCDVTWATQERISLQWLRRIQNYSVMDICDYDESSGRWNCLVARQHIEMSTTGWVGRFRPSEPHFTLDGNSFYKIISNEEGYRHICYFQIDKKDCTFITKGTWEVIGIEALTSDYLYYISNEYKGMPGGRNLYKIQLSDYTKVTCLSCELNPERCQYYSVSFSKEAKYYQLRCSGPGLPLYTLHSSVNDKGLRVLEDNSALDKMLQNVQMPSKKLDFIILNETKFWYQMILPPHFDKSKKYPLLLDVYAGPCSQKADTVFRLNWATYLASTENIIVASFDGRGSGYQGDKIMHAINRRLGTFEVEDQIEAARQFSKMGFVDNKRIAIWGWSYGGYVTSMVLGSGSGVFKCGIAVAPVSRWEYYDSVYTERYMGLPTPEDNLDHYRNSTVMSRAENFKQVEYLLIHGTADDNVHFQQSAQISKALVDVGVDFQAMWYTDEDHGIASSTAHQHIYTHMSHFIKQCFSLP
A word on the Kd: it is a measure of binding affinity in units of concentration. Low values mean a tighter complex, high ones a looser complex. Molecule B1 showed a Kd of 35.9 µM.
